According to article PMC9482650, “Quantitative fragmentomics allow affinity mapping of interactomes” (Nature Communications, 2022):

How the values were obtained:
Experiment in all cases: holdup assay
Parameters in all cases: key: below the threshold = too weak to quantify, mostly under pKd 3.1 to 4
IL16_4, Q14005 = molecular target: IL16_4, Q14005
PDZD2_2, O15018 = molecular target: T1, PDZD2_2, O15018
T1 sequence (O15018 329-429, limits assumed, looked up): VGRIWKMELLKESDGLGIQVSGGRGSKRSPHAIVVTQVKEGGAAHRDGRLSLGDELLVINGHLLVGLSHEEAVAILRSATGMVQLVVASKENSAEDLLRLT

DFNB31_2, Q9P202 = molecular target: T2, DFNB31_2, Q9P202
T2 sequence (Q9P202 274-371, limits assumed, looked up): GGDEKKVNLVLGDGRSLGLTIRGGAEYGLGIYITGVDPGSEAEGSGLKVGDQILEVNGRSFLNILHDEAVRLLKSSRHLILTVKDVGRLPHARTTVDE

GRIP2_6, Q9C0E4 = molecular target: GRIP2_6, Q9C0E4
Chain of GRIP2_6, Q9C0E4 (Q9C0E4 648-740): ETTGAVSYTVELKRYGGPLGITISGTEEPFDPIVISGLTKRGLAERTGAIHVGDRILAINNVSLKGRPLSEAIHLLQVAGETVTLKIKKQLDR

GRASP, Q7Z6J2 = molecular target: GRASP, Q7Z6J2
Chain of GRASP, Q7Z6J2 (Q7Z6J2 96-193): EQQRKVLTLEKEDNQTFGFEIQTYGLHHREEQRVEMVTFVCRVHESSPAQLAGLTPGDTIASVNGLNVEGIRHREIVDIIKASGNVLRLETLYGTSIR

LNX2_3, Q8N448 = molecular target: T3, LNX2_3, Q8N448
T3 sequence (Q8N448 463-564, limits assumed, looked up): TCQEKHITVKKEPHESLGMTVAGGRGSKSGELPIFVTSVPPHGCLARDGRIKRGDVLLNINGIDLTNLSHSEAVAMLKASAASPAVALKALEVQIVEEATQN

LIMK2, P53671 = molecular target: LIMK2, P53671
Chain of LIMK2, P53671 (P53671 143-248): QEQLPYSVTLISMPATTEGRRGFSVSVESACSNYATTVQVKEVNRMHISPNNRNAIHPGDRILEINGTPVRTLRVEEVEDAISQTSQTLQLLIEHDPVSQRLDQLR

TJP1_2, Q07157 = molecular target: TJP1_2, Q07157
Chain of TJP1_2, Q07157 (Q07157 181-274): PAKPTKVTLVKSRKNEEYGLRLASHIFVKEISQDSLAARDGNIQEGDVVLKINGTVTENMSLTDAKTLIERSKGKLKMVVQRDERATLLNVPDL

MPP6, Q9NZW5 = molecular target: T4, MPP6, Q9NZW5
T4 sequence (Q9NZW5 125-219, limits assumed, looked up): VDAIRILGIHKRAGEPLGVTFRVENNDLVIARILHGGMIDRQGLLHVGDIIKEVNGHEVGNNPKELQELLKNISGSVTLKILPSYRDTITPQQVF

HTRA1, Q92743 = molecular target: HTRA1, Q92743
Chain of HTRA1, Q92743 (Q92743 360-477): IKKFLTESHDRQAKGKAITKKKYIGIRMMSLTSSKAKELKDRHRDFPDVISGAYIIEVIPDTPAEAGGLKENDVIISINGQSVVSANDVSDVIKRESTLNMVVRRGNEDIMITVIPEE

RAPGEF6, Q8TEU7 = molecular target: T5, RAPGEF6, Q8TEU7
T5 sequence (Q8TEU7 525-625, limits assumed, looked up): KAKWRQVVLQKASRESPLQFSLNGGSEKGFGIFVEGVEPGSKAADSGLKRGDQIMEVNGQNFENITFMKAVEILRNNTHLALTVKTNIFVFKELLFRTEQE

SNTB1, Q13884 = molecular target: T6, SNTB1, Q13884
T6 sequence (Q13884 107-205, limits assumed, looked up): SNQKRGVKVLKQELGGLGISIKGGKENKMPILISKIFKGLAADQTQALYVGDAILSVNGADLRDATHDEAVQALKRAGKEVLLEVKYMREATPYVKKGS

SNX27, Q96L92 = molecular target: SNX27, Q96L92
DLG1_1, Q12959 = molecular target: DLG1_1, Q12959
DVL3, Q92997 = molecular target: T7, DVL3, Q92997
T7 sequence (Q92997 244-331, limits assumed, looked up): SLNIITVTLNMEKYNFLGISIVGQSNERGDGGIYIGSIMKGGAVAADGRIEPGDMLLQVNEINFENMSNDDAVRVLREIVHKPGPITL

DLG5_1, Q8TDM6 = molecular target: DLG5_1, Q8TDM6
Chain of DLG5_1, Q8TDM6 (Q8TDM6 617-713): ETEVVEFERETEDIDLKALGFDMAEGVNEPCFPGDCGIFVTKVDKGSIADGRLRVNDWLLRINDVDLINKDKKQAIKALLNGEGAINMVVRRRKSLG

ARHGEF11, O15085 = molecular target: T8, ARHGEF11, O15085
T8 sequence (O15085 42-136, limits assumed, looked up): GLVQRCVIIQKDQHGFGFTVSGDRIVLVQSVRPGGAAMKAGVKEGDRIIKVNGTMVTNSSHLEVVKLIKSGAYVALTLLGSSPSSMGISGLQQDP

TJP2_1, Q9UDY2 = molecular target: TJP2_1, Q9UDY2
Chain of TJP2_1, Q9UDY2 (Q9UDY2 24-128): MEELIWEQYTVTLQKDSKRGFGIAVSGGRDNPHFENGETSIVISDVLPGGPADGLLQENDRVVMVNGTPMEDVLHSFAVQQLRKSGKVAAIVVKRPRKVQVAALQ

APBA2_1, Q99767 = molecular target: T9, APBA2_1, Q99767
T9 sequence (Q99767 563-664, limits assumed, looked up): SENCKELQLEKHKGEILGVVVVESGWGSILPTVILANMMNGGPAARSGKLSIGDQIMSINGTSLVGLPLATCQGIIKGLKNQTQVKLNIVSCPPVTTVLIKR

NHERF4_1, Q86UT5-2 = molecular target: NHERF4_1, Q86UT5-2
Chain of NHERF4_1, Q86UT5-2 (Q86UT5 other isoform, or with tags, fused parts or gaps): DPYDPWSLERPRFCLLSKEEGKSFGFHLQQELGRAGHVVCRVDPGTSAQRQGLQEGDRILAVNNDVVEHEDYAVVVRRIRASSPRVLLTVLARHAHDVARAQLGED

APBA2_2, Q99767 = molecular target: T10, APBA2_2, Q99767
T10 sequence (Q99767 654-744, limits assumed, looked up): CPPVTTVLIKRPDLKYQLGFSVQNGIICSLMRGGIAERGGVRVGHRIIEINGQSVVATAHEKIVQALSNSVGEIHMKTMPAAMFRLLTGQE

MPDZ_10, O75970 = molecular target: T11, MPDZ_10, O75970
T11 sequence (O75970 1624-1722, limits assumed, looked up): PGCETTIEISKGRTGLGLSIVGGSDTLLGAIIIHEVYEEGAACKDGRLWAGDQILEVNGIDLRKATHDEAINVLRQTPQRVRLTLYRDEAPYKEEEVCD

IL16_3, Q14005 = molecular target: IL16_3, Q14005
Chain of IL16_3, Q14005 (Q14005 1107-1207): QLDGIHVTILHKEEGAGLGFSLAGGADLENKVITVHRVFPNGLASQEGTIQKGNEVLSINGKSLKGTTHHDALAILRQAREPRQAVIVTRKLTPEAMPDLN

GRIP2_3, Q9C0E4 = molecular target: GRIP2_3, Q9C0E4
Chain of GRIP2_3, Q9C0E4 (Q9C0E4 238-339): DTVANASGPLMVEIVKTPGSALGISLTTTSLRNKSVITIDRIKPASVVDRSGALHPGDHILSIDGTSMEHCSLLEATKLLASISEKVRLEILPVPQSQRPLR

SCRIB_3, Q14160 = molecular target: SCRIB_3, Q14160
Chain of SCRIB_3, Q14160 (Q14160 999-1103): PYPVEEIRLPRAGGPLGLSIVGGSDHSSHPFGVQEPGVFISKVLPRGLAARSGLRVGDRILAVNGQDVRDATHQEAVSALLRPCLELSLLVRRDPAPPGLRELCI

SCRIB_2, Q14160 = molecular target: SCRIB_2, Q14160
Chain of SCRIB_2, Q14160 (Q14160 857-960): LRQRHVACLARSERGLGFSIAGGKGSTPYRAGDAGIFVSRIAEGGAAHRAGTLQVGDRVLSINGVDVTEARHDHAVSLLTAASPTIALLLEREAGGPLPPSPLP

[1] = plain residues with an end cap or a label only (N-terminal biotin on a linker: ahx)
[2] = plain residues with an end cap or a label only (N-terminal biotin on a linker: ttds)
[3] = plain residues with an end cap or a label only (N-terminal biotin on a linker: gsgsgs; C-terminal amide)
[4] = plain residues with an end cap or a label only (N-terminal biotin on a linker: ado-ado)

Chain of IL16_4, Q14005 (Q14005 1229-1329): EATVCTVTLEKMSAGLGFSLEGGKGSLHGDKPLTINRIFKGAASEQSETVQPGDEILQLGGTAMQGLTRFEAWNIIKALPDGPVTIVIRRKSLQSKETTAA

QGRWDHETIV [TMEM215, Q68D42]
pKd (IL16_4, Q14005; [1]): below the threshold
pKd (PDZD2_2, O15018; [1]): 4.69
pKd (DFNB31_2, Q9P202; [1]): below the threshold
pKd (GRIP2_6, Q9C0E4; [1]): below the threshold
pKd (GRASP, Q7Z6J2; [1]): below the threshold
pKd (LNX2_3, Q8N448; [1]): below the threshold
pKd (LIMK2, P53671; [1]): below the threshold
pKd (TJP1_2, Q07157; [1]): 3.5
pKd (MPP6, Q9NZW5; [1]): below the threshold
pKd (HTRA1, Q92743; [1]): 5
pKd (RAPGEF6, Q8TEU7; [1]): below the threshold
pKd (SNTB1, Q13884; [1]): 4.95
pKd (SNX27, Q96L92; [1]): 5.38
pKd (DLG1_1, Q12959; [1]): 4.84
pKd (DVL3, Q92997; [1]): 3.69
pKd (DLG5_1, Q8TDM6; [1]): below the threshold
pKd (ARHGEF11, O15085; [1]): 4.04
pKd (TJP2_1, Q9UDY2; [1]): 3.68
pKd (APBA2_1, Q99767; [1]): below the threshold
pKd (NHERF4_1, Q86UT5-2; [1]): below the threshold
pKd (APBA2_2, Q99767; [1]): below the threshold
pKd (MPDZ_10, O75970; [1]): below the threshold
pKd (IL16_3, Q14005; [1]): below the threshold
pKd (GRIP2_3, Q9C0E4; [1]): below the threshold
pKd (SCRIB_3, Q14160; [1]): 4.06
pKd (SCRIB_2, Q14160; [1]): 4.08

RTRQRNETQV [HPV51-E6, P26554]
pKd (IL16_4, Q14005; [2]): below the threshold
pKd (PDZD2_2, O15018; [2]): 3.58
pKd (DFNB31_2, Q9P202; [2]): below the threshold
pKd (GRIP2_6, Q9C0E4; [2]): below the threshold
pKd (GRASP, Q7Z6J2; [2]): below the threshold
pKd (LNX2_3, Q8N448; [2]): below the threshold
pKd (LIMK2, P53671; [2]): below the threshold
pKd (TJP1_2, Q07157; [2]): below the threshold
pKd (MPP6, Q9NZW5; [2]): below the threshold
pKd (HTRA1, Q92743; [2]): below the threshold
pKd (RAPGEF6, Q8TEU7; [2]): below the threshold
pKd (SNTB1, Q13884; [2]): 4.09
pKd (SNX27, Q96L92; [2]): 4.85
pKd (DLG1_1, Q12959; [2]): 4.78
pKd (DVL3, Q92997; [2]): below the threshold
pKd (DLG5_1, Q8TDM6; [2]): below the threshold
pKd (ARHGEF11, O15085; [2]): 3.69
pKd (TJP2_1, Q9UDY2; [2]): below the threshold
pKd (APBA2_1, Q99767; [2]): below the threshold
pKd (NHERF4_1, Q86UT5-2; [2]): below the threshold
pKd (APBA2_2, Q99767; [2]): below the threshold
pKd (MPDZ_10, O75970; [2]): below the threshold
pKd (IL16_3, Q14005; [2]): below the threshold
pKd (GRIP2_3, Q9C0E4; [2]): below the threshold
pKd (SCRIB_3, Q14160; [2]): 4.17
pKd (SCRIB_2, Q14160; [2]): 4.39

ELIQDTSTSFSTTREW [ARAP3_int, Q8WWN8]
pKd (IL16_4, Q14005; [3]): below the threshold
pKd (PDZD2_2, O15018; [3]): below the threshold
pKd (DFNB31_2, Q9P202; [3]): below the threshold
pKd (GRIP2_6, Q9C0E4; [3]): below the threshold
pKd (GRASP, Q7Z6J2; [3]): below the threshold
pKd (LNX2_3, Q8N448; [3]): below the threshold
pKd (LIMK2, P53671; [3]): below the threshold
pKd (TJP1_2, Q07157; [3]): below the threshold
pKd (MPP6, Q9NZW5; [3]): 3.69
pKd (HTRA1, Q92743; [3]): below the threshold
pKd (RAPGEF6, Q8TEU7; [3]): below the threshold
pKd (SNTB1, Q13884; [3]): below the threshold
pKd (SNX27, Q96L92; [3]): below the threshold
pKd (DLG1_1, Q12959; [3]): below the threshold
pKd (DVL3, Q92997; [3]): below the threshold
pKd (DLG5_1, Q8TDM6; [3]): below the threshold
pKd (ARHGEF11, O15085; [3]): below the threshold
pKd (TJP2_1, Q9UDY2; [3]): below the threshold
pKd (APBA2_1, Q99767; [3]): below the threshold
pKd (NHERF4_1, Q86UT5-2; [3]): below the threshold
pKd (APBA2_2, Q99767; [3]): below the threshold
pKd (MPDZ_10, O75970; [3]): below the threshold
pKd (IL16_3, Q14005; [3]): below the threshold
pKd (GRIP2_3, Q9C0E4; [3]): below the threshold
pKd (SCRIB_3, Q14160; [3]): below the threshold
pKd (SCRIB_2, Q14160; [3]): below the threshold

EEPEERHTEL [CES2, O00748]
pKd (IL16_4, Q14005; [4]): below the threshold
pKd (PDZD2_2, O15018; [4]): 5.04
pKd (DFNB31_2, Q9P202; [4]): below the threshold
pKd (GRIP2_6, Q9C0E4; [4]): below the threshold
pKd (GRASP, Q7Z6J2; [4]): 4.62
pKd (LNX2_3, Q8N448; [4]): below the threshold
pKd (LIMK2, P53671; [4]): below the threshold
pKd (TJP1_2, Q07157; [4]): below the threshold
pKd (MPP6, Q9NZW5; [4]): below the threshold
pKd (HTRA1, Q92743; [4]): 4.36
pKd (RAPGEF6, Q8TEU7; [4]): 3.56
pKd (SNTB1, Q13884; [4]): 4.92
pKd (SNX27, Q96L92; [4]): 4.74
pKd (DLG1_1, Q12959; [4]): below the threshold
pKd (DVL3, Q92997; [4]): below the threshold
pKd (DLG5_1, Q8TDM6; [4]): below the threshold
pKd (ARHGEF11, O15085; [4]): 4.64
pKd (TJP2_1, Q9UDY2; [4]): below the threshold
pKd (APBA2_1, Q99767; [4]): below the threshold
pKd (NHERF4_1, Q86UT5-2; [4]): 4.09
pKd (APBA2_2, Q99767; [4]): below the threshold
pKd (MPDZ_10, O75970; [4]): below the threshold
pKd (IL16_3, Q14005; [4]): below the threshold
pKd (GRIP2_3, Q9C0E4; [4]): below the threshold
pKd (SCRIB_3, Q14160; [4]): 4.89
pKd (SCRIB_2, Q14160; [4]): 3.79

GGPKEEESPV [SLC16A1, P53985]
pKd (IL16_4, Q14005; [2]): below the threshold
pKd (PDZD2_2, O15018; [2]): 4.75
pKd (DFNB31_2, Q9P202; [2]): below the threshold
pKd (GRIP2_6, Q9C0E4; [2]): below the threshold
pKd (GRASP, Q7Z6J2; [2]): below the threshold
pKd (LNX2_3, Q8N448; [2]): below the threshold
pKd (LIMK2, P53671; [2]): below the threshold
pKd (TJP1_2, Q07157; [2]): below the threshold
pKd (MPP6, Q9NZW5; [2]): below the threshold
pKd (HTRA1, Q92743; [2]): below the threshold
pKd (RAPGEF6, Q8TEU7; [2]): below the threshold
pKd (SNTB1, Q13884; [2]): below the threshold
pKd (SNX27, Q96L92; [2]): 5.27
pKd (DLG1_1, Q12959; [2]): below the threshold
pKd (DVL3, Q92997; [2]): below the threshold
pKd (DLG5_1, Q8TDM6; [2]): below the threshold
pKd (ARHGEF11, O15085; [2]): below the threshold
pKd (TJP2_1, Q9UDY2; [2]): below the threshold
pKd (APBA2_1, Q99767; [2]): below the threshold
pKd (NHERF4_1, Q86UT5-2; [2]): below the threshold
pKd (APBA2_2, Q99767; [2]): below the threshold
pKd (MPDZ_10, O75970; [2]): below the threshold
pKd (IL16_3, Q14005; [2]): below the threshold
pKd (GRIP2_3, Q9C0E4; [2]): below the threshold
pKd (SCRIB_3, Q14160; [2]): below the threshold
pKd (SCRIB_2, Q14160; [2]): below the threshold
